Source: patent publication US20040229289A1, “Antigen binding peptides (abtides) from peptide libraries” (Cytogen Corporation, priority 1994, published 2004)
Where no end group is shown, it is not given here.

T1: mimetope peptide 7E11-9.5 (not fully specified)
T1 peptide: LYANPGMYSRLHSPA

T2: biotinylated 7E11-9.5 mimetope peptide (not fully specified (N-terminus); printed as Biotin-LYANPGMYSRLHSPA-NH2)
T2 peptide: LYANPGMYSRLHSPA-NH2

T3: PEM peptide (human)
T3 peptide: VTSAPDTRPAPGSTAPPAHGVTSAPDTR


Target: T1, mimetope peptide 7E11-9.5
Test: phage panning of TSAR-9 library on plate-bound 7E11-9.5 peptide
Details: not given
Experimental: Next, the mimetope peptide was used to isolate abtides from a peptide library. Fifty to one hundred microliters of the solution of this peptide was used to coat the wells of a 96-well plate, the wells were blocked with 0.5% BSA in PBS, and the wells were used for screening. An aliquot of the TSAR-9 random phage library (containing approximately 3×10¹⁰ phage particles) was used as in the initial screening, and 4 rounds of screening were performed. After the first two rounds, the phage were amplified. Two more rounds of screening were then performed. By this procedure, phage from the TSAR-9 library that expressed peptides capable of binding to the 7E11-9.5 mimetope peptide were identified and isolated. The peptides containing the binding domains of these phage are abtides and were discovered to mimic the binding specificities of monoclonal antibody 7E11-C5. These abtides are termed “7E11-C5 abtides.”

Molecule	binding result
CGRAYCLSGNYNIFGALFPGVSTPYADVGHDDAQSWRR (tested afterwards as synthetic 38-residue peptide) [7E11-C5 abtide clone 15]	binds
GIINANDPLPFWFMSPYTPGPAPIDINASRALVSNESG (tested afterwards as synthetic 38-residue peptide (dot blot, ELISA, sandwich assay)) [7E11-C5 abtide clone 14]	binds
DLSRNLDFGRFLLYNAYVPGFTPTFISLTAEHLSSPKG (tested afterwards as synthetic 38-residue peptide) [7E11-C5 abtide clone 17]	binds

Target: T2, biotinylated 7E11-9.5 mimetope peptide
Test: dot blot, synthetic abtide spotted on nitrocellulose, biotinylated mimetope in solution
Details: not given
Experimental: In some cases, these abtides were used in a dot blot experiment. In those cases, 1 μL of a 1 mg/mL solution of the 38-residue abtides was spotted onto nitrocellulose (0.2 μm or 0.45 μm, Schleicher & Schuell, Keene, NH) strips or circles. After drying (about 1/2 hour), the nitrocellulose was blocked for 1 hour in a solution of 1% BSA in PBS. The nitrocellulose was then allowed to incubate in approximately 5 mL of a solution of 0.1 mg/mL of a biotinylated 7E11-9.5 mimetope peptide (biotin-[…]). This mimetope peptide was one of those described in Section 6.1.1 above that were synthesized based upon the nine peptides that were identified in the screening of Section 6.1.1 above. After an hour, the nitrocellulose was washed approximately 5 times with a solution of 1% BSA in PBS. A 1:2000 dilution of Extravidin-Alkaline Phosphatase (4,250 units/mL) (Sigma, St. Louis, Mo.) in PBS was then added and allowed to incubate for 1 hour, after which the nitrocellulose was again washed extensively. Finally, a solution of 5-bromo-4-chloro-3-indolyl phosphate (0.15 mg/mL) and nitro blue tetrazolium (0.3 mg/mL) (Sigma, St Louis, Mo.) (BCIP/NBT) was added as an enzyme substrate. Color was allowed to develop […].
(§1) In FIG. 4, the 7E11-C5 abtides known as clone 14, clone 17, clone 15, clone 16, and clone 13 were tested for their ability to bind the biotinylated 7E11-9.5 mimetope peptide. Also tested, as a positive control, was the monoclonal antibody 7E11-C5. 7E11-C5 was spotted onto the region marked 351 in FIG. 4.

Molecule	binding result
CGRAYCLSGNYNIFGALFPGVSTPYADVGHDDAQSWRR (tested afterwards as synthetic 38-residue peptide) [7E11-C5 abtide clone 15]	binds
GIINANDPLPFWFMSPYTPGPAPIDINASRALVSNESG (tested afterwards as synthetic 38-residue peptide (dot blot, ELISA, sandwich assay)) [7E11-C5 abtide clone 14]	binds
DLSRNLDFGRFLLYNAYVPGFTPTFISLTAEHLSSPKG (tested afterwards as synthetic 38-residue peptide) [7E11-C5 abtide clone 17]	binds

Target: T3, PEM peptide
Test: phage panning on PEM peptide, D38 library, eluted with excess PEM peptide
Details: not given
Experimental: (§2) A peptide comprising this sequence was synthesized and used to isolate abtides from TSAR peptide libraries by methods analogous to those described above. In these experiments, the specific TSAR libraries used were R26, D38 and DC43. See FIGS. 10-12 for description of these libraries. Phage bound to PEM were eluted by either standard acid elution methods, stringent acid elution methods where phage were incubated with the PEM peptide for only 10 minutes prior to washing and elution, or were eluted using excess PEM peptide. Phage from each library were isolated that express peptides capable of binding to PEM.

Molecule	binding result
IDWNWLERGQHNRGYLHSFPDAKSQPTRGPRVAPNGND (eluted with excess PEM peptide) [MP-20]	binds
GRGSDMREHWPWSMPLILDQHANDPSPRAQSHYYSHPF (eluted with excess PEM peptide) [MP-30]	binds

Target: T3, PEM peptide
Test: phage panning on PEM peptide, R26 library, eluted with excess PEM peptide
Details: not given
Experimental: as §2

Molecule	binding result
RAELVNWYEWFHVTAEAETPVINSHNMT (eluted with excess PEM peptide) [P6]	binds
ILGWPFLTGLGDSTVHPRGRKGTDPS (eluted with excess PEM peptide) [P24]	binds
SRDDIFTGGPLVLFRGSKTSNHDVHSMR (eluted with excess PEM peptide) [P26]	binds
SIPSFSMWLNQLGSAALPSKGNSQDRSD (eluted with excess PEM peptide) [P49]	binds

Each molecule was assayed on biotinylated 7E11-9.5 mimetope peptide (assay: Dot blot: spotted 7E11-C5 abtides probed with biotinylated mimetope peptide). Details: 1 μL of 1 mg/mL abtide spotted on nitrocellulose; 0.1 mg/mL mimetope; FIG. 4.
Assay type: binding
Experimental: In some cases, these abtides were used in a dot blot experiment. In those cases, 1 μL of a 1 mg/mL solution of the 38-residue abtides was spotted onto nitrocellulose (0.2 μm or 0.45 μm, Schleicher & Schuell, Keene, NH) strips or circles. After drying (about 1/2 hour), the nitrocellulose was blocked for 1 hour in a solution of 1% BSA in PBS. The nitrocellulose was then allowed to incubate in approximately 5 mL of a solution of 0.1 mg/mL of a biotinylated 7E11-9.5 mimetope peptide (biotin-LYANPGMYSRLHSPA). This mimetope peptide was one of those described in Section 6.1.1 above that were synthesized based upon the nine peptides that were identified in the screening of Section 6.1.1 above. After an hour, the nitrocellulose was washed approximately 5 times with a solution of 1% BSA in PBS. A 1:2000 dilution of Extravidin-Alkaline Phosphatase (4,250 units/mL) (Sigma, St. Louis, Mo.) in PBS was then added and allowed to incubate for 1 hour, after which the nitrocellulose was again washed extensively. Finally, a solution of 5-bromo-4-chloro-3-indolyl phosphate (0.15 mg/mL) and nitro blue tetrazolium (0.3 mg/mL) (Sigma, St Louis, Mo.) (BCIP/NBT) was added as an enzyme substrate. Color was allowed to develop […].
as §1

Molecule	binding of biotinylated 7E11-9.5 mimetope peptide in dot blot
CGRAYCLSGNYNIFGALFPGVSTPYADVGHDDAQSWRR [clone 15]	bound the mimetope
DLSRNLDFGRFLLYNAYVPGFTPTFISLTAEHLSSPKG [clone 17]	bound the mimetope

Target: T3, PEM peptide
Test: phage panning on PEM peptide, DC43 library, acid eluted
Details: not given
Experimental: as §2

Molecule	binding result
LPRPFDDASWKLRAVKESPDGCGFGSPLLFPPYSGLPTFSSCD (acid eluted) [MA-21]	binds
GSFESARGVTCIGNHSIGAHGCGPLRSYASFNRGSGRRH (acid eluted) [V22]	binds
EEKQGGRWSTMMPRPWCHEGGCGFLYYDAMTKPKTPPIMRTAA (acid eluted) [MA-8]	binds

Target: T3, PEM peptide
Test: phage panning on PEM peptide, DC43 library, eluted with excess PEM peptide
Details: not given
Experimental: as §2

Molecule	binding result
GSASSCFPNFTARGVTVGFFGCGSPAHPAAPRVLNPATDFPAP (eluted with excess PEM peptide) [MP-2]	binds
VFRRTARSSRPIGATVFPWYGCGNSNDETLPHHDSPPSFFLGA (eluted with excess PEM peptide) [MP-22]	binds
NTCWTDLFWHGLPGGDLPRDGCGLPSELTTHPSRERRDASEN [MA-13]	binds
GAPVWRGNPRWRGPGGFKWPGCGNGPMCNTFTPARGGSRNNGP (eluted with excess PEM peptide; also called MPI; PEM abtide MP-1) [MP-1]	binds
